Laboratory results published in patent US6251583A, “Peptide substrates for HCV NS3 protease assays” (Schering Corporation, priority 1999, dated 2001).
Values joined by “and” are separate entries in the source; they are usually repeats but may differ in a detail not shown here. Identical values can stand only once. Square brackets hold non-standard residues; d marks the D form. Peptide text beside a SMILES is read from it. * marks the point of attachment. ONp = O=[N+]([O-])c1ccc(O*)cc1; X2 = c1ccc(N=Nc2ccc(O*)cc2)cc1; X3 = O=[N+]([O-])c1cccc(O*)c1; X1 = Cc1cc(=O)oc2cc(O*)ccc12; Nva = CCC[C@H](N)C(=O)O

Tests used:
NS3/4A(1-631)/4A(1-54) = biological target: T1, NS3/4A(1-631)/4A(1-54) (Hepatitis C virus genotype 1a, UniProt P27958); test: Cleavage efficiency of nitrophenyl and other ester based chromogenic substrates, spectrophotometric; format: biochemical, HCV 1a(H); conditions: 25 mM MOPS pH 6.5, 10% glycerol, 0.15 M NaCl, 0.2% lauryl maltoside
T1 construct: a noncovalent complex between NS4A (54 residues) and NS3 (631 residues); histidine tag (N, cleaved yes); made in house; host or cells: baculovirus system / insect cells
Procedure: The chromogenic substrates defined by SEQ ID NOs: 5-13 were synthetically produced as described above and tested for cleavage efficiency in 25 mM MOPS buffer, pH 6.5, containing 10% (v/v) glycerol, 0.15 M NaCl, 0.2% lauryl maltoside. The substrates were cleaved by NS3/4A(1-631)/4A(1-54) (see Example 1). The rate of product formation was monitored by a spectrophotometer, at 400 nm for 4Np, 370 nm for PAP, and 340 nm for 3Np and HMC.

[1] = biological target: (Ac-)[…]-(2-Cl-4-nitroanilide) (HCV)
[2] = biological target: Ac-DTEDVVA(Nva)-O-3Np (HCV)
[3] = biological target: Ac-DTEDVVA(Nva)-O-4Np (HCV)
[4] = biological target: Ac-DTEDVVA(Nva)-O-HMC (HCV)
[5] = biological target: Ac-DTEDVVA(Nva)-O-PAP (HCV)
[6] = biological target: Ac-DTEDVVP(Nva)-O-HMC (HCV)
[7] = biological target: Ac-DTEDVVP(Nva)-O-PAP (HCV)
[8] = biological target: biotinylated amide substrates
[9] = biological target: biotinylated ester substrate

Question: Which Km (NS3/4A(1-631)/4A(1-54)) does the source give for CCC[C@H](NC(=O)[C@H](C)NC(=O)[C@@H](NC(=O)[C@@H](NC(=O)[C@H](CC(=O)O)NC(=O)[C@H](CCC(=O)O)NC(=O)[C@@H](NC(=O)[C@H](CC(=O)O)NC(C)=O)[C@@H](C)O)C(C)C)C(C)C)C(=O)Oc1cccc([N+](=O)[O-])c1 [Ac-DTEDVVA(Nva)-O-3Np] (Ac-DTEDVVA[Nva]-X3) here?
Answer: 48 µM

Question: CCC[C@H](NC(=O)[C@H](C)NC(=O)[C@@H](NC(=O)[C@@H](NC(=O)[C@H](CC(=O)O)NC(=O)[C@H](CCC(=O)O)NC(=O)[C@@H](NC(=O)[C@H](CC(=O)O)NC(C)=O)[C@@H](C)O)C(C)C)C(C)C)C(=O)Oc1ccc([N+](=O)[O-])cc1 [Ac-DTEDVVA(Nva)-O-4Np] (Ac-DTEDVVA[Nva]-ONp) was tested. Which Km (NS3/4A(1-631)/4A(1-54)) did it give?
Answer: 16 µM

Question: For CCC[C@H](NC(=O)[C@H](C)NC(=O)[C@@H](NC(=O)[C@@H](NC(=O)[C@H](CC(=O)O)NC(=O)[C@H](CCC(=O)O)NC(=O)[C@@H](NC(=O)[C@H](CC(=O)O)NC(C)=O)[C@@H](C)O)C(C)C)C(C)C)C(=O)Oc1ccc2c(C)cc(=O)oc2c1 [Ac-DTEDVVA(Nva)-O-HMC] (Ac-DTEDVVA[Nva]-X1), which Km (NS3/4A(1-631)/4A(1-54)) is on record?
Answer: 20 µM

Question: Which Km (NS3/4A(1-631)/4A(1-54)) does the source give for CCC[C@H](NC(=O)[C@H](C)NC(=O)[C@@H](NC(=O)[C@@H](NC(=O)[C@H](CC(=O)O)NC(=O)[C@H](CCC(=O)O)NC(=O)[C@@H](NC(=O)[C@H](CC(=O)O)NC(C)=O)[C@@H](C)O)C(C)C)C(C)C)C(=O)Oc1ccc(N=Nc2ccccc2)cc1 [Ac-DTEDVVA(Nva)-O-PAP] (Ac-DTEDVVA[Nva]-X2) here?
Answer: 17 µM

Question: CCC[C@H](NC(=O)[C@@H]1CCCN1C(=O)[C@@H](NC(=O)[C@@H](NC(=O)[C@H](CC(=O)O)NC(=O)[C@H](CCC(=O)O)NC(=O)[C@@H](NC(=O)[C@H](CC(=O)O)NC(C)=O)[C@@H](C)O)C(C)C)C(C)C)C(=O)Oc1ccc2c(C)cc(=O)oc2c1 [Ac-DTEDVVP(Nva)-O-HMC] (Ac-DTEDVVP[Nva]-X1) was tested. Which Km (NS3/4A(1-631)/4A(1-54)) did it give?
Answer: 40 µM

Question: With CCC[C@H](NC(=O)[C@@H]1CCCN1C(=O)[C@@H](NC(=O)[C@@H](NC(=O)[C@H](CC(=O)O)NC(=O)[C@H](CCC(=O)O)NC(=O)[C@@H](NC(=O)[C@H](CC(=O)O)NC(C)=O)[C@@H](C)O)C(C)C)C(C)C)C(=O)Oc1ccc(N=Nc2ccccc2)cc1 [Ac-DTEDVVP(Nva)-O-PAP] (Ac-DTEDVVP[Nva]-X2) as the compound, how does the Km (NS3/4A(1-631)/4A(1-54)) read?
Answer: 18 µM

Question: With “HCV NS3(1-631)/4A(1-54) protease, non-covalent complex of full-length HCV 1a(H) NS3 with amino acids (enzyme)” as the compound, how does the kcat/Km [1] read?
Answer: 10 M⁻¹ s⁻¹

Question: What about the kcat/Km (…-(4-nitroanilide) (HCV)) of the same compound?
Answer: 15 M⁻¹ s⁻¹ and 45 M⁻¹ s⁻¹

Question: And the kcat/Km [2]?
Answer: 7300 M⁻¹ s⁻¹

Question: And the kcat/Km [3]?
Answer: 38000 M⁻¹ s⁻¹

Question: What about the kcat/Km [4] of the same compound?
Answer: 8400 M⁻¹ s⁻¹

Question: What about the kcat/Km [5] of the same compound?
Answer: 4000 M⁻¹ s⁻¹

Question: And the kcat/Km [6]?
Answer: 8400 M⁻¹ s⁻¹

Question: And the kcat/Km [7]?
Answer: 13000 M⁻¹ s⁻¹

Question: And the kcat/Km (Ac-[…](Nva)-O-4Np (HCV))?
Answer: 25000 M⁻¹ s⁻¹

Question: What about the kcat/Km ([…](Nva)-O-3Np (HCV)) of the same compound?
Answer: 11100 M⁻¹ s⁻¹

Question: And the catalytic efficiency [8]?
Answer: < 30000 M⁻¹ s⁻¹

Question: What about the catalytic efficiency [9] of the same compound?
Answer: < 460000 M⁻¹ s⁻¹
